Measurements published in patent US20100210517A1.

Key:
[1] = target: recombinant human LRP1 ligand binding cluster II (amino acids 786-1165, C-terminal Fc) (human); test: competition ELISA, inhibition of RAP d3 (2 nM) binding to coated LRP1 cluster II-Fc
[2] = target: recombinant human LRP1 ligand binding cluster II (amino acids 786-1165, C-terminal Fc) (human); test: inhibitor pre-incubated with coated LRP1 cluster II-Fc, washed, then RAP d3 added; inhibition of RAP d3 binding
[3] = target: LRP2 CR89 Y1042W (human) (UniProt P98164); test: solid-phase assay; OD at the highest ligand concentration as percent of the highest OD of all ligands
LRP2 CR89 Y1042W (human), sequence (P98164 1025-1102 Y1043W limits assumed): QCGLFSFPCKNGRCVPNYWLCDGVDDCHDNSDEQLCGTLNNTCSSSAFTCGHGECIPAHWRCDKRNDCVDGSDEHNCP

recombinant human LRP1 ligand binding cluster II (amino acids 786-1165, C-terminal Fc) (human), sequence (Q07954 786-1165): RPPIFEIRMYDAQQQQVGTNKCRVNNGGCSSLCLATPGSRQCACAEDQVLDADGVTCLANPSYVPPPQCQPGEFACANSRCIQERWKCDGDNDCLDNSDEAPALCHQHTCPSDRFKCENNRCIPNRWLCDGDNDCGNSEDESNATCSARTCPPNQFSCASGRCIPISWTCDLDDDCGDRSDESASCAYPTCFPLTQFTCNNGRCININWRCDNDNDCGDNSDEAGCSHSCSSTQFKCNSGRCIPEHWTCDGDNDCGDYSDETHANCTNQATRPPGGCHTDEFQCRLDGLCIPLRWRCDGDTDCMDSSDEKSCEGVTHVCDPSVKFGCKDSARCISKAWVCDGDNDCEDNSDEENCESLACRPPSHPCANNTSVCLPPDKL
mature human RAP (full-length), sequence (P30533 35-357): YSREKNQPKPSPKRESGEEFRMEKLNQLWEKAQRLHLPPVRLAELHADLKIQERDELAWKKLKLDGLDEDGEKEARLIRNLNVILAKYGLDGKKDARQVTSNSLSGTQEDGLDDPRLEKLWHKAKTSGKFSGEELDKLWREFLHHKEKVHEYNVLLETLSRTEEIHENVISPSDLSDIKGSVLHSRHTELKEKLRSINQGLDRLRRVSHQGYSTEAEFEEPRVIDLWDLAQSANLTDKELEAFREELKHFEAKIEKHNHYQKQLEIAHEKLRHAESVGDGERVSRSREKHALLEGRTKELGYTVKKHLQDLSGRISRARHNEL
RAP d3 (wild-type domain 3 of human RAP, amino acids 201-319 of mature RAP), sequence (P30533 235-353 A264E): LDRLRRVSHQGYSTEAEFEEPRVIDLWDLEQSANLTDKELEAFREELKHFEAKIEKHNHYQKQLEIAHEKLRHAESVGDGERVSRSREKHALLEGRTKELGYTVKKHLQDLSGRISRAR

Row | EC50 [1] | fold better EC50 than monomeric mRAPc peptide [1] | EC50 [2] | % max bind [3] | Substance
1 | 0.5 nM | 64 fold | 0.3 nM | – | mature human RAP (full-length) (from UniProt P30533 35-357) (ligand)
2 | – | – | – | 9% | RAP d3 (wild-type domain 3 of human RAP, amino acids 201-319 of mature RAP) (from UniProt P30533 235-353) (ligand)
